B1: MORAb-003 (antibody, human IgG1, kappa, V domains shown)
VH: EVQLVESGGGVVQPGRSLRLSCSASGFTFSGYGLSWVRQAPGKGLEWVAMISSGGSYTYYADSVKGRFAISRDNAKNTLFLQMDSLRPEDTGVYFCARHGDDPAWFAYWGQGTPVTVSS
VL: DIQLTQSPSSLSASVGDRVTITCSVSSSISSNNLHWYQQKPGKAPKPWIYGTSNLASGVPSRFSGSGSGTDYTFTISSLQPEDIATYYCQQWSSYPYMYTFGQGTKVEIKR
notes: Humanized anti-human folate receptor alpha, unconjugated; also called farletuzumab
B2: MORAb003-ER1231690 (antibody, human IgG1, kappa, V domains shown)
VH: B1 VH
VL: B1 VL
modifications: Mal-PEG2-(Ala-Ala-Asn-pAB)2-eribulin on interchain cysteines, sites not given
notes: Antibody-drug conjugate
B3: MORAb003-ER1237505 (antibody, human IgG1, kappa, V domains shown)
VH: B1 VH
VL: B1 VL
modifications: Mal-PEG4-triazole-PEG3-sulfonamide-pAB-eribulin on interchain cysteines, sites not given
notes: Antibody-drug conjugate
B4: MORAb003-PEG4-eribulin (antibody, human IgG1, kappa, V domains shown)
VH: B1 VH
VL: B1 VL
modifications: Mal-PEG4-eribulin (non-cleavable) on interchain cysteines, sites not given
notes: Antibody-drug conjugate
B5: MORAb003-ER1236940 (antibody, human IgG1, kappa, V domains shown)
VH: B1 VH
VL: B1 VL
modifications: NHS-PEG2-Val-Cit-pAB-eribulin on lysines, sites not given
notes: Antibody-drug conjugate; DAR 0.72 (LC-MS)
B6: MORAb003-ER1231679 (antibody, human IgG1, kappa, V domains shown)
VH: B1 VH
VL: B1 VL
modifications: Mal-PEG2-Ala-Ala-Asn-pAB-eribulin on interchain cysteines, sites not given
notes: Antibody-drug conjugate
B7: MORAb003-ER1243700 (antibody, human IgG1, kappa, V domains shown)
VH: B1 VH
VL: B1 VL
modifications: NHS-PEG3-triazole-PEG3-Val-Cit-pAB-eribulin on lysines, sites not given
notes: Antibody-drug conjugate preparation; DAR 0.00 (LC-MS)
B8: MORAb003-PEG2-eribulin (antibody, human IgG1, kappa, V domains shown)
VH: B1 VH
VL: B1 VL
modifications: Mal-PEG2-eribulin (non-cleavable) on interchain cysteines, sites not given
notes: Antibody-drug conjugate
B9: MORAb003-ER1236941 (antibody, human IgG1, kappa, V domains shown)
VH: B1 VH
VL: B1 VL
modifications: NHS-(CH2)5-Val-Cit-pAB-eribulin on lysines, sites not given
notes: Antibody-drug conjugate; DAR 0.77 (LC-MS)
B10: MORAb003-ER1159569 (Lot NB3142-62A) (antibody, human IgG1, kappa, V domains shown)
VH: B1 VH
VL: B1 VL
modifications: Mal-PEG2-Val-Cit-pAB-eribulin on interchain cysteines, sites not given
notes: Antibody-drug conjugate; also called MORAb-003-VCP-eribulin
B11: MORAb003-ER1159569 (Lot NB3073-88L) (antibody, human IgG1, kappa, V domains shown)
VH: B1 VH
VL: B1 VL
modifications: Mal-PEG2-Val-Cit-pAB-eribulin on interchain cysteines, sites not given
notes: as for B10
B12: MORAb003-ER1242288 (antibody, human IgG1, kappa, V domains shown)
VH: B1 VH
VL: B1 VL
modifications: NHS-PEG9-Val-Cit-pAB-eribulin on lysines, sites not given
notes: as for B7
B13: MORAb003-ER1237504 (antibody, human IgG1, kappa, V domains shown)
VH: B1 VH
VL: B1 VL
modifications: Mal-PEG4-triazole-PEG3-disulfide-pAB-eribulin on interchain cysteines, sites not given
notes: Antibody-drug conjugate
B14: MORAb003-ER1231691 (antibody, human IgG1, kappa, V domains shown)
VH: B1 VH
VL: B1 VL
modifications: NHS-PEG2-Ala-Ala-Asn-pAB-eribulin on lysines, sites not given
notes: Antibody-drug conjugate; DAR 0.37 (LC-MS)
B15: MORAb003-ER1242287 (antibody, human IgG1, kappa, V domains shown)
VH: B1 VH
VL: B1 VL
modifications: Mal-PEG8-Val-Cit-pAB-eribulin on interchain cysteines, sites not given
notes: Antibody-drug conjugate
B16: MORAb003-ER1235638 (antibody, human IgG1, kappa, V domains shown)
VH: B1 VH
VL: B1 VL
modifications: Mal-(CH2)5-Val-Cit-pAB-eribulin on interchain cysteines, sites not given
notes: Antibody-drug conjugate

Values joined by “and” are separate entries in the source; they are usually repeats but may differ in a detail not shown here. Identical values can stand only once.

From US20170252458A1 (EISAI R AND D MANAGEMENT, published 2017) come the findings set out here.

T1 sequence (P15328 25-234 limits assumed): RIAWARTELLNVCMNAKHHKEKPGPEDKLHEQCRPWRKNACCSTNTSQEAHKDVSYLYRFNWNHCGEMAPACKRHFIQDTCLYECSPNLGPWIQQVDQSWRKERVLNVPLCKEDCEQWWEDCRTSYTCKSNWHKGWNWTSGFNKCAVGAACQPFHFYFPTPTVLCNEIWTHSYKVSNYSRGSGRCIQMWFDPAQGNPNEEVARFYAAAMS

The experiment addresses T1, Recombinant human folate receptor alpha (human, UniProt P15328 25-234).
T1 construct: also called FRA; FR
As to the kind of experiment: ELISA, recombinant human FRA coated. Here is the method: Coating solution was discarded and the plates were washed three times using 1× PBS with 0.05% Tween-20 (PBST) buffer. Plates were blocked in 300 μL blocking buffer (1% BSA in PBST) at room temperature for 2 hours on an orbital shaker. […] Blocking buffer was discarded and 100 μL/well of diluted antibody was added to the plates. Plates were incubated at room temperature for 2 hours on an orbital shaker. Antibody solution was discarded and plates were washed three times using PBST. 100 μL/well of goat-anti-human IgG (H+L)-HRP (1:10,000 dilution in blocking buffer) solution was added to the plates, and plates were incubated at room temperature for 1 hour on an orbital shaker. Secondary antibody solution was discarded and plates were washed three times using PBST. 100 μL/well of QuantaBlu fluorogenic peroxidase substrate working solution (Thermo, Cat No. 15169) was added to the plates, and plates were incubated at room temperature for 30 min. Fluorescence was read at excitation 325 nm/emission 420 nm using a SpectraMax M5 (Molecular Devices). Data was analyzed using SoftMaxPro 5.4.2 software with 4-parameter fitting.
In the case of B1, the EC50 is 0.00629 µg/mL and 0.04 nM.
With B2, the EC50 was 0.00892 µg/mL and 0.06 nM.
The same measure for B3: 0.0183 µg/mL and 0.12 nM; for B4: 0.00931 µg/mL and 0.06 nM.
The same measure for B5: 0.017 µg/mL and 0.11 nM; for B6: 0.0183 µg/mL and 0.12 nM.
The same measure for B7: 0.00622 µg/mL and 0.04 nM; for B8: 0.00696 µg/mL and 0.05 nM; for B9: 0.013 µg/mL and 0.09 nM.
Regarding B10, the EC50 is 0.12 nM and 0.0182 µg/mL.
To B11 belongs 0.0226 µg/mL and 0.15 nM; to B12, 0.0144 µg/mL and 0.1 nM; to B13, 0.0298 µg/mL and 0.2 nM.
The same measure for B14: 0.0115 µg/mL and 0.08 nM; for B15: 0.0215 µg/mL and 0.14 nM.
The same measure for B16: 0.0153 µg/mL and 0.1 nM.
